Measured values taken from US20190127444A1 (NEW YORK UNIVERSITY, published 2019).

T1: LukAB toxoid variant (LukA E323A), recombinant polyhistidine-tagged (S. aureus, UniProt Q2FFA2 28-351; P21224 30-338)
T1 sequence 1: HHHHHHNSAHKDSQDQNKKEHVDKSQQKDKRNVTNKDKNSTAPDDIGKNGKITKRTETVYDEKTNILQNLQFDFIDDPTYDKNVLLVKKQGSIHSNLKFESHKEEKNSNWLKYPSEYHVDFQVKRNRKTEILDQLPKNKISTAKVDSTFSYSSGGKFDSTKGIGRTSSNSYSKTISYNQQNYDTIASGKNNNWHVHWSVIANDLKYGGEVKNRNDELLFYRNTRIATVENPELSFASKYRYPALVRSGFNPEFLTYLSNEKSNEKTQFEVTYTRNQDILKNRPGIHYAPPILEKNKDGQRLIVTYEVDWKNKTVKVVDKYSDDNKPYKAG
T1 sequence 2: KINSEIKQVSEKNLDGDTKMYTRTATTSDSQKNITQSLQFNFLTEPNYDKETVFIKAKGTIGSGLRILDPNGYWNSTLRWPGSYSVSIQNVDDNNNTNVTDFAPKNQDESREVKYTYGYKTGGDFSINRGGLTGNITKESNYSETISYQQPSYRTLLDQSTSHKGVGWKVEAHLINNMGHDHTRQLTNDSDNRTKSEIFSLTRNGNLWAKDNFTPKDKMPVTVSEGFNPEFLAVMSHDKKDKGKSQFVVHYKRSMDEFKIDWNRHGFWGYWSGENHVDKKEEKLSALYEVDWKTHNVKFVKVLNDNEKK

B1: 0×1 linker variant of Construct 11 (bispecific antibody)
heavy: EVQLVETGGGLVKPGGSLRLSCSASRFSFRDYYMTWIRQAPGKGPEWVSHISGSGSTIYYADSVRGRFTISRDNAKSSLYLQMDSLQADDTAVYYCARGGRATSYYWVHWGPGTLVTVSSASTKGPSVFPLAPSSKSTSGGTAALGCLVKDYFPEPVTVSWNSGALTSGVHTFPAVLQSSGLYSLSSVVTVPSSSLGTQTYICNVNHKPSNTKVDKKVEPKSCDKTHTCPPCPAPPVAGPDVFLFPPKPKDTLMISRTPEVTCVVVDVSHEDPEVKFNWYVDGVEVHNAKTKPREEQYNSTYRVVSVLTVLHQDWLNGKEYKCKVSNAALPAPIAKTISKAKGQPREPQVYTLPPSRDELTKNQVSLTCLVKGFYPSDIAVEWESNGQPENNYKTTPPVLDSDGSFFLYSKLTVDKSRWQQGNVFSCSVMHEALHNRFTQKSLSLSPGKMLPAPKNLVVSRVTEDSARLSWTAPDAAFDSFHIEYAEPWVWGEAIVLTVPGSERSYDLTGLKPGTEYVVFIGGVKGGHNSTPLSAIFTTGGGGSMLPAPKNLVVSRVTEDSARLSWTAPDAAFDSFWITYEEKFYRGEAIVLTVPGSERSYDLTGLKPGTEYKVWIVGVKGGQGSWPLSAIFTT
light: EIVLTQSPATLSLSPGERATLSCRASQSVSGYLGWYQQKPGQAPRLLIYGASSRATGIPDRFSGSGSGTDFTLTISRLEPEDFAVYYCQQYGSSPLTFGGGTKLEIKRTVAAPSVFIFPPSDEQLKSGTASVVCLLNNFYPREAKVQWKVDNALQSGNSQESVTEQDSKDSTYSLSSTLTLSKADYEKHKVYACEVTHQGLSSPVTKSFNRGEC
B2: 3×2 linker variant of Construct 11 (bispecific antibody)
heavy: EVQLVETGGGLVKPGGSLRLSCSASRFSFRDYYMTWIRQAPGKGPEWVSHISGSGSTIYYADSVRGRFTISRDNAKSSLYLQMDSLQADDTAVYYCARGGRATSYYWVHWGPGTLVTVSSASTKGPSVFPLAPSSKSTSGGTAALGCLVKDYFPEPVTVSWNSGALTSGVHTFPAVLQSSGLYSLSSVVTVPSSSLGTQTYICNVNHKPSNTKVDKKVEPKSCDKTHTCPPCPAPPVAGPDVFLFPPKPKDTLMISRTPEVTCVVVDVSHEDPEVKFNWYVDGVEVHNAKTKPREEQYNSTYRVVSVLTVLHQDWLNGKEYKCKVSNAALPAPIAKTISKAKGQPREPQVYTLPPSRDELTKNQVSLTCLVKGFYPSDIAVEWESNGQPENNYKTTPPVLDSDGSFFLYSKLTVDKSRWQQGNVFSCSVMHEALHNRFTQKSLSLSPGKGGGGSGGGGSGGGGSMLPAPKNLVVSRVTEDSARLSWTAPDAAFDSFHIEYAEPWVWGEAIVLTVPGSERSYDLTGLKPGTEYVVFIGGVKGGHNSTPLSAIFTTGGGGSGGGGSMLPAPKNLVVSRVTEDSARLSWTAPDAAFDSFWITYEEKFYRGEAIVLTVPGSERSYDLTGLKPGTEYKVWIVGVKGGQGSWPLSAIFTT
light: B1 light
B3: 1×4 linker variant of Construct 11 (bispecific antibody)
heavy: EVQLVETGGGLVKPGGSLRLSCSASRFSFRDYYMTWIRQAPGKGPEWVSHISGSGSTIYYADSVRGRFTISRDNAKSSLYLQMDSLQADDTAVYYCARGGRATSYYWVHWGPGTLVTVSSASTKGPSVFPLAPSSKSTSGGTAALGCLVKDYFPEPVTVSWNSGALTSGVHTFPAVLQSSGLYSLSSVVTVPSSSLGTQTYICNVNHKPSNTKVDKKVEPKSCDKTHTCPPCPAPPVAGPDVFLFPPKPKDTLMISRTPEVTCVVVDVSHEDPEVKFNWYVDGVEVHNAKTKPREEQYNSTYRVVSVLTVLHQDWLNGKEYKCKVSNAALPAPIAKTISKAKGQPREPQVYTLPPSRDELTKNQVSLTCLVKGFYPSDIAVEWESNGQPENNYKTTPPVLDSDGSFFLYSKLTVDKSRWQQGNVFSCSVMHEALHNRFTQKSLSLSPGKGGGGSMLPAPKNLVVSRVTEDSARLSWTAPDAAFDSFHIEYAEPWVWGEAIVLTVPGSERSYDLTGLKPGTEYVVFIGGVKGGHNSTPLSAIFTTGGGGSGGGGSGGGGSGGGGSMLPAPKNLVVSRVTEDSARLSWTAPDAAFDSFWITYEEKFYRGEAIVLTVPGSERSYDLTGLKPGTEYKVWIVGVKGGQGSWPLSAIFTT
light: B1 light
B4: 0×2 linker variant of Construct 11 (bispecific antibody)
heavy: EVQLVETGGGLVKPGGSLRLSCSASRFSFRDYYMTWIRQAPGKGPEWVSHISGSGSTIYYADSVRGRFTISRDNAKSSLYLQMDSLQADDTAVYYCARGGRATSYYWVHWGPGTLVTVSSASTKGPSVFPLAPSSKSTSGGTAALGCLVKDYFPEPVTVSWNSGALTSGVHTFPAVLQSSGLYSLSSVVTVPSSSLGTQTYICNVNHKPSNTKVDKKVEPKSCDKTHTCPPCPAPPVAGPDVFLFPPKPKDTLMISRTPEVTCVVVDVSHEDPEVKFNWYVDGVEVHNAKTKPREEQYNSTYRVVSVLTVLHQDWLNGKEYKCKVSNAALPAPIAKTISKAKGQPREPQVYTLPPSRDELTKNQVSLTCLVKGFYPSDIAVEWESNGQPENNYKTTPPVLDSDGSFFLYSKLTVDKSRWQQGNVFSCSVMHEALHNRFTQKSLSLSPGKMLPAPKNLVVSRVTEDSARLSWTAPDAAFDSFHIEYAEPWVWGEAIVLTVPGSERSYDLTGLKPGTEYVVFIGGVKGGHNSTPLSAIFTTGGGGSGGGGSMLPAPKNLVVSRVTEDSARLSWTAPDAAFDSFWITYEEKFYRGEAIVLTVPGSERSYDLTGLKPGTEYKVWIVGVKGGQGSWPLSAIFTT
light: B1 light
B5: 0×3 linker variant of Construct 11 (bispecific antibody)
heavy: EVQLVETGGGLVKPGGSLRLSCSASRFSFRDYYMTWIRQAPGKGPEWVSHISGSGSTIYYADSVRGRFTISRDNAKSSLYLQMDSLQADDTAVYYCARGGRATSYYWVHWGPGTLVTVSSASTKGPSVFPLAPSSKSTSGGTAALGCLVKDYFPEPVTVSWNSGALTSGVHTFPAVLQSSGLYSLSSVVTVPSSSLGTQTYICNVNHKPSNTKVDKKVEPKSCDKTHTCPPCPAPPVAGPDVFLFPPKPKDTLMISRTPEVTCVVVDVSHEDPEVKFNWYVDGVEVHNAKTKPREEQYNSTYRVVSVLTVLHQDWLNGKEYKCKVSNAALPAPIAKTISKAKGQPREPQVYTLPPSRDELTKNQVSLTCLVKGFYPSDIAVEWESNGQPENNYKTTPPVLDSDGSFFLYSKLTVDKSRWQQGNVFSCSVMHEALHNRFTQKSLSLSPGKMLPAPKNLVVSRVTEDSARLSWTAPDAAFDSFHIEYAEPWVWGEAIVLTVPGSERSYDLTGLKPGTEYVVFIGGVKGGHNSTPLSAIFTTGGGGSGGGGSGGGGSMLPAPKNLVVSRVTEDSARLSWTAPDAAFDSFWITYEEKFYRGEAIVLTVPGSERSYDLTGLKPGTEYKVWIVGVKGGQGSWPLSAIFTT
light: B1 light
B6: 3×3 linker variant of Construct 11 (bispecific antibody)
heavy: EVQLVETGGGLVKPGGSLRLSCSASRFSFRDYYMTWIRQAPGKGPEWVSHISGSGSTIYYADSVRGRFTISRDNAKSSLYLQMDSLQADDTAVYYCARGGRATSYYWVHWGPGTLVTVSSASTKGPSVFPLAPSSKSTSGGTAALGCLVKDYFPEPVTVSWNSGALTSGVHTFPAVLQSSGLYSLSSVVTVPSSSLGTQTYICNVNHKPSNTKVDKKVEPKSCDKTHTCPPCPAPPVAGPDVFLFPPKPKDTLMISRTPEVTCVVVDVSHEDPEVKFNWYVDGVEVHNAKTKPREEQYNSTYRVVSVLTVLHQDWLNGKEYKCKVSNAALPAPIAKTISKAKGQPREPQVYTLPPSRDELTKNQVSLTCLVKGFYPSDIAVEWESNGQPENNYKTTPPVLDSDGSFFLYSKLTVDKSRWQQGNVFSCSVMHEALHNRFTQKSLSLSPGKGGGGSGGGGSGGGGSMLPAPKNLVVSRVTEDSARLSWTAPDAAFDSFHIEYAEPWVWGEAIVLTVPGSERSYDLTGLKPGTEYVVFIGGVKGGHNSTPLSAIFTTGGGGSGGGGSGGGGSMLPAPKNLVVSRVTEDSARLSWTAPDAAFDSFWITYEEKFYRGEAIVLTVPGSERSYDLTGLKPGTEYKVWIVGVKGGQGSWPLSAIFTT
light: B1 light
B7: 0×4 linker variant of Construct 11 (bispecific antibody)
heavy: EVQLVETGGGLVKPGGSLRLSCSASRFSFRDYYMTWIRQAPGKGPEWVSHISGSGSTIYYADSVRGRFTISRDNAKSSLYLQMDSLQADDTAVYYCARGGRATSYYWVHWGPGTLVTVSSASTKGPSVFPLAPSSKSTSGGTAALGCLVKDYFPEPVTVSWNSGALTSGVHTFPAVLQSSGLYSLSSVVTVPSSSLGTQTYICNVNHKPSNTKVDKKVEPKSCDKTHTCPPCPAPPVAGPDVFLFPPKPKDTLMISRTPEVTCVVVDVSHEDPEVKFNWYVDGVEVHNAKTKPREEQYNSTYRVVSVLTVLHQDWLNGKEYKCKVSNAALPAPIAKTISKAKGQPREPQVYTLPPSRDELTKNQVSLTCLVKGFYPSDIAVEWESNGQPENNYKTTPPVLDSDGSFFLYSKLTVDKSRWQQGNVFSCSVMHEALHNRFTQKSLSLSPGKMLPAPKNLVVSRVTEDSARLSWTAPDAAFDSFHIEYAEPWVWGEAIVLTVPGSERSYDLTGLKPGTEYVVFIGGVKGGHNSTPLSAIFTTGGGGSGGGGSGGGGSGGGGSMLPAPKNLVVSRVTEDSARLSWTAPDAAFDSFWITYEEKFYRGEAIVLTVPGSERSYDLTGLKPGTEYKVWIVGVKGGQGSWPLSAIFTT
light: B1 light

target: T1, LukAB toxoid variant (LukA E323A), …; assay: ELISA, biotinylated toxin on streptavidin plate

Binder | binding result
B1 | binds
B2 | binds
B3 | binds
B4 | binds
B5 | binds
B6 | binds
B7 | binds
